# Measurements: the supplement of paper PMC6755084
# Tested on: F1*sub RNA substrate (template-directed ligation)
# Assay: fraction ligated after 30 min (ligated reads / total reads); higher = more ligase activity; sequences stand for … in GAGACCGCAACTGAAAAGTTGT…AGTTCTGCACGTAGAAGCAAAAGGC
# Conditions: 42 °C
# Procedure, shortened: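 Oligo-pool templates underwent PCR amplification, T7 transcription and gel purification to yield ribozyme variants. Gel-separated ligated and unligated bands were converted to complementary DNA with barcoded primers and sequenced on a MiSeq, keeping core bases of quality ≥20. The ratio of ligated reads to total reads gave the fraction ligated for every variant.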
row,Sequence,fraction ligated
1,TATCACTTGTCGTAAGAACTTTGATGGGTTGA [2d256],0.79
2,TATCACTTGTCGTAAGAACTTTGATGGTTGA [3d2169],0.0458
3,TATCACTTGTCGTAAGAACTTTGGAGGGTTA [3d2177],0.075
4,TATCACTTGTCGTAAGAACTTTGGAGGGTTG [3d2178],0.0318
5,TATCACTTGTCGTAAGAACTTTGGAGGGTTGA [2d258],0.0583
6,TATCACTTGTCGTAAGAACTTTGGAGGTTGA [3d2176],0.0186
7,TATCACTTGTCGTAAGAACTTTGGATGGGTT [3d2181],0.219
8,TATCACTTGTCGTAAGAACTTTGGATGGGTTA [2d260],0.799
9,TATCACTTGTCGTAAGAACTTTGGATGGGTTG [2d261],0.81
10,TATCACTTGTCGTAAGAACTTTGGATGGTTA [3d2179],0.11
11,TATCACTTGTCGTAAGAACTTTGGATGGTTG [3d2180],0.0734
12,TATCACTTGTCGTAAGAACTTTGGATGGTTGA [2d259],0.139
13,TATCACTTGTCGTAAGAACTTTGGGGGTTGA [3d2172],0.0507
14,TATCACTTGTCGTAAGAACTTTGGTGGGTTA [3d2174],0.0479
15,TATCACTTGTCGTAAGAACTTTGGTGGGTTG [3d2175],0.0265
16,TATCACTTGTCGTAAGAACTTTGGTGGGTTGA [2d257],0.123
17,TATCACTTGTCGTAAGAACTTTGGTGGTTGA [3d2173],0.0396
18,TATCACTTGTCGTAAGAACTTTGTGGGTTGA [3d2167],0.0101
19,TATCACTTGTCGTAAGAATTGGATGGGTTGA [3d2152],0.785
20,TATCACTTGTCGTAAGAATTTGATGGGTTGA [3d2153],0.757
21,TATCACTTGTCGTAAGAATTTGGAGGGTTGA [3d2155],0.0724
22,TATCACTTGTCGTAAGAATTTGGATGGGTTA [3d2157],0.765
23,TATCACTTGTCGTAAGAATTTGGATGGGTTG [3d2158],0.798

row,Sequence,fraction ligated
1,TATCACTTGTCGTAAGAATTTGGATGGGTTGA [2d254],0.8
2,TATCACTTGTCGTAAGAATTTGGATGGTTGA [3d2156],0.208
3,TATCACTTGTCGTAAGAATTTGGTGGGTTGA [3d2154],0.135
4,TATCACTTGTCGTAAGACACGGATGGGTTGA [3d2231],0.231
5,TATCACTTGTCGTAAGACACTGATGGGTTGA [3d2232],0.0313
6,TATCACTTGTCGTAAGACACTGGAGGGTTGA [3d2234],0.00473
7,TATCACTTGTCGTAAGACACTGGATGGGTTA [3d2236],0.751
8,TATCACTTGTCGTAAGACACTGGATGGGTTG [3d2237],0.778
9,TATCACTTGTCGTAAGACACTGGATGGGTTGA [2d276],0.776
10,TATCACTTGTCGTAAGACACTGGATGGTTGA [3d2235],0.0538
11,TATCACTTGTCGTAAGACACTGGTGGGTTGA [3d2233],0.00438
12,TATCACTTGTCGTAAGACACTTATGGGTTGA [3d2238],0.0156
13,TATCACTTGTCGTAAGACACTTGAGGGTTGA [3d2240],0.00563
14,TATCACTTGTCGTAAGACACTTGATGGGTTA [3d2242],0.0227
15,TATCACTTGTCGTAAGACACTTGATGGGTTG [3d2243],0.239
16,TATCACTTGTCGTAAGACACTTGATGGGTTGA [2d277],0.662
17,TATCACTTGTCGTAAGACACTTGATGGTTGA [3d2241],0.0196
18,TATCACTTGTCGTAAGACACTTGGAGGGTTA [3d2249],0.0115
19,TATCACTTGTCGTAAGACACTTGGAGGGTTG [3d2250],0.00522
20,TATCACTTGTCGTAAGACACTTGGAGGGTTGA [2d279],0.0154
21,TATCACTTGTCGTAAGACACTTGGAGGTTGA [3d2248],0.00668
22,TATCACTTGTCGTAAGACACTTGGATGGGTT [3d2253],0.239
23,TATCACTTGTCGTAAGACACTTGGATGGGTTA [2d281],0.756

row,Sequence,fraction ligated
1,TATCACTTGTCGTAAGACACTTGGATGGGTTG [2d282],0.777
2,TATCACTTGTCGTAAGACACTTGGATGGTTA [3d2251],0.0219
3,TATCACTTGTCGTAAGACACTTGGATGGTTG [3d2252],0.036
4,TATCACTTGTCGTAAGACACTTGGATGGTTGA [2d280],0.0762
5,TATCACTTGTCGTAAGACACTTGGGGGTTGA [3d2244],0.0227
6,TATCACTTGTCGTAAGACACTTGGTGGGTTA [3d2246],0.0114
7,TATCACTTGTCGTAAGACACTTGGTGGGTTG [3d2247],0.0184
8,TATCACTTGTCGTAAGACACTTGGTGGGTTGA [2d278],0.0691
9,TATCACTTGTCGTAAGACACTTGGTGGTTGA [3d2245],0.012
10,TATCACTTGTCGTAAGACACTTGTGGGTTGA [3d2239],0.00905
11,TATCACTTGTCGTAAGACACTTTAGGGTTGA [3d2256],0.0176
12,TATCACTTGTCGTAAGACACTTTATGGGTTA [3d2258],0.0282
13,TATCACTTGTCGTAAGACACTTTATGGGTTG [3d2259],0.0149
14,TATCACTTGTCGTAAGACACTTTATGGGTTGA [2d283],0.0284
15,TATCACTTGTCGTAAGACACTTTATGGTTGA [3d2257],0.0255
16,TATCACTTGTCGTAAGACACTTTGAGGGTTA [3d2265],0.0074
17,TATCACTTGTCGTAAGACACTTTGAGGGTTG [3d2266],0.00798
18,TATCACTTGTCGTAAGACACTTTGAGGGTTGA [2d285],0.00683
19,TATCACTTGTCGTAAGACACTTTGAGGTTGA [3d2264],0.0133
20,TATCACTTGTCGTAAGACACTTTGATGGGTT [3d2269],0.017
21,TATCACTTGTCGTAAGACACTTTGATGGGTTA [2d287],0.167
22,TATCACTTGTCGTAAGACACTTTGATGGGTTG [2d288],0.755
23,TATCACTTGTCGTAAGACACTTTGATGGTTA [3d2267],0.00859

row,Sequence,fraction ligated
1,TATCACTTGTCGTAAGACACTTTGATGGTTG [3d2268],0.0103
2,TATCACTTGTCGTAAGACACTTTGATGGTTGA [2d286],0.0395
3,TATCACTTGTCGTAAGACACTTTGGAGGGTT [3d2279],0.0132
4,TATCACTTGTCGTAAGACACTTTGGAGGGTTA [2d294],0.0266
5,TATCACTTGTCGTAAGACACTTTGGAGGGTTG [2d295],0.0513
6,TATCACTTGTCGTAAGACACTTTGGAGGTTA [3d2277],0.0104
7,TATCACTTGTCGTAAGACACTTTGGAGGTTG [3d2278],0.00797
8,TATCACTTGTCGTAAGACACTTTGGAGGTTGA [2d293],0.0113
9,TATCACTTGTCGTAAGACACTTTGGATGGGTT [2d298],0.772
10,TATCACTTGTCGTAAGACACTTTGGATGGTT [3d2281],0.024
11,TATCACTTGTCGTAAGACACTTTGGATGGTTA [2d296],0.447
12,TATCACTTGTCGTAAGACACTTTGGATGGTTG [2d297],0.531
13,TATCACTTGTCGTAAGACACTTTGGGGGTTA [3d2271],0.0237
14,TATCACTTGTCGTAAGACACTTTGGGGGTTG [3d2272],0.0105
15,TATCACTTGTCGTAAGACACTTTGGGGGTTGA [2d289],0.0225
16,TATCACTTGTCGTAAGACACTTTGGGGTTGA [3d2260],0.0415
17,TATCACTTGTCGTAAGACACTTTGGTGGGTT [3d2275],0.011
18,TATCACTTGTCGTAAGACACTTTGGTGGGTTA [2d291],0.018
19,TATCACTTGTCGTAAGACACTTTGGTGGGTTG [2d292],0.0944
20,TATCACTTGTCGTAAGACACTTTGGTGGTTA [3d2273],0.0182
21,TATCACTTGTCGTAAGACACTTTGGTGGTTG [3d2274],0.0129
22,TATCACTTGTCGTAAGACACTTTGGTGGTTGA [2d290],0.0232
23,TATCACTTGTCGTAAGACACTTTGTGGGTTA [3d2262],0.00904

row,Sequence,fraction ligated
1,TATCACTTGTCGTAAGACACTTTGTGGGTTG [3d2263],0.00738
2,TATCACTTGTCGTAAGACACTTTGTGGGTTGA [2d284],0.0141
3,TATCACTTGTCGTAAGACACTTTGTGGTTGA [3d2261],0.0088
4,TATCACTTGTCGTAAGACACTTTTGGGTTGA [3d2255],0.0315
5,TATCACTTGTCGTAAGACATGGATGGGTTGA [3d2207],0.808
6,TATCACTTGTCGTAAGACATTGATGGGTTGA [3d2208],0.778
7,TATCACTTGTCGTAAGACATTGGAGGGTTGA [3d2210],0.0593
8,TATCACTTGTCGTAAGACATTGGATGGGTTA [3d2212],0.78
9,TATCACTTGTCGTAAGACATTGGATGGGTTG [3d2213],0.797
10,TATCACTTGTCGTAAGACATTGGATGGGTTGA [2d269],0.815
11,TATCACTTGTCGTAAGACATTGGATGGTTGA [3d2211],0.0757
12,TATCACTTGTCGTAAGACATTGGTGGGTTGA [3d2209],0.0429
13,TATCACTTGTCGTAAGACATTTATGGGTTGA [3d2214],0.0203
14,TATCACTTGTCGTAAGACATTTGAGGGTTGA [3d2216],0.00411
15,TATCACTTGTCGTAAGACATTTGATGGGTTA [3d2218],0.0152
16,TATCACTTGTCGTAAGACATTTGATGGGTTG [3d2219],0.098
17,TATCACTTGTCGTAAGACATTTGATGGGTTGA [2d270],0.291
18,TATCACTTGTCGTAAGACATTTGATGGTTGA [3d2217],0.00686
19,TATCACTTGTCGTAAGACATTTGGAGGGTTA [3d2225],0.0022
